Test results as given in PMC8185224 (EBioMedicine, 2021).

B1: recombinant murine D-dopachrome tautomerase (natural protein, UniProt O35215 1-118, looked up)
chain: MPFVELETNLPASRIPAGLENRLCAATATILDKPEDRVSVTIRPGMTLLMNKSTEPCAHLLVSSIGVVGTAEQNRTHSASFFKFLTEELSLDQDRIVIRFFPLEAWQIGKKGTVMTFL
notes: D-dopachrome tautomerase (DDT), murine; also called rmDDT; murine DDT; source: E. coli BL21(DE3), pET20b(+), purified (Q sepharose, phenyl sepharose, Superdex75 SEC)
B2: recombinant human D-dopachrome tautomerase (natural protein, UniProt P30046 1-118, looked up)
chain: MPFLELDTNLPANRVPAGLEKRLCAAAASILGKPADRVNVTVRPGLAMALSGSTEPCAQLSISSIGVVGTAEDNRSHSAHFFEFLTKELALGQDRILIRFFPLESWQIGKIGTVMTFL
notes: D-dopachrome tautomerase (DDT), human; The protein was active as a tautomerase, so the initiator methionine is probably removed (surmise); also called rhDDT; DDT; source: E. coli BL21(DE3), pET20b(+), purified (Q sepharose, phenyl sepharose, Superdex75 SEC)

Target: the molecule itself
Test: SEC; Superdex75 column in 20 mM sodium phosphate buffer, pH 8.0; last step of the purification

Protein | stoichiometry N
B1 | 3
B2 | 3
